Legend:
[1] = target: T1, membrane-bound tissue factor (TF) on cells (human, UniProt P13726 33-295); test: cell-based or functional assay
[2] = target: T2, TFECDHis (extracellular domain of tissue factor, amino acid 1-251, with C-terminal His tag) (human, UniProt P13726 33-251); test: ELISA, coated TFECDHis
T2 construct: range 1-251; The stated range 1-251 starts at residue 1 of the precursor; also called recombinant extracellular domain of TF
Description: (§1) Binding of the anti-TF ADCs to TF was measured by ELISA (coated recombinant extracellular domain of TF) and compared with binding of unconjugated anti-TF HuMabs. […] ELISA plates were washed three times with PBS containing 0.05% Tween-20 (PBST), blocked with 200 µL/well PBST at RT for 1 h while shaking (300 rpm), washed three times with PBST and emptied. Subsequently, 100 μl anti-TF ADCs or unconjugated anti-TF HuMabs were added in serial dilutions in PBST and incubated while shaking at RT for 90 min. ELISA plates were washed three times with PBST and emptied. […] Plates were washed three times with PBST, emptied and incubated with 100 μL ABTS solution (50 ml ABTS buffer [Roche] and one ABTS tablet [50 mg; Roche]). After incubation in the dark at RT for 30 min, the reaction was stopped by incubation with 100 μL per well oxalic acid (2% [w/v]; Riedel de Haen) in the dark, for 10 min. Plates were measured at OD 405 nm in an ELISA reader (Biotek Instruments, EL808 Absorbance Microplate Reader).
(§2) Binding curves were analyzed by non-linear regression (sigmoidal dose-response with variable slope) using GraphPad Prism 5 software (GraphPad Software, San Diego, CA, USA).

[3] = target: T1, membrane-bound tissue factor (TF) on …; test: cell-based or functional assay; remark: listed apart in the source
[4] = target: T1, membrane-bound tissue factor (TF) on …; test: FACS, inhibition of binding of 100 nM FVIIa to TF on MDA-MB-231 cells; one representative experiment
Description: MDA-MB-231 cells were washed in PBS to remove serum and plated in 96-well plates (100,000 cells per well). […] Cells were washed with FACS buffer and mean fluorescence intensity (MFI) was measured on a FACSCanto II (Becton Dickinson).

[5] = target: T2, TFECDHis (extracellular domain of …); test: ELISA, coated TFECDHis; lower end of the group's range, tied to 011 unconjugated by Table 7 (373)
[6] = target: T2, TFECDHis (extracellular domain of …); test: ELISA, coated TFECDHis; upper end of the group's range, tied to 011-vcMMAE by Table 7 (469)
Description: as §1, §2

| Binder | % kill, A431 cells, anti-kappa-ETA' assay [1] [%] | % kill, BxPC3 cells, anti-kappa-ETA' assay [1] [%] | % kill, MDA-MB-231 cells, anti-kappa-ETA' assay [1] [%] | EC50 of cell killing, A431 cells, anti-kappa-ETA' assay [1] [ng/mL] | EC50 of cell killing, BxPC3 cells, anti-kappa-ETA' assay [1] [ng/mL] | EC50 of cell killing, MDA-MB-231 cells, anti-kappa-ETA' assay [1] [ng/mL] | EC50 [2] [ng/mL] | % kill at 10 µg/mL, A431 cells, ADC killing assay [3] [%] | % kill at 10 µg/mL, HPAF-II cells, ADC killing assay [3] [%] | % kill at 10 µg/mL, NCI-H441 cells, ADC killing assay [3] [%] | IC50 of cell killing, A431 cells, ADC killing assay [3] [ng/mL] | IC50 of cell killing, HPAF-II cells, ADC killing assay [3] [ng/mL] | IC50 of cell killing, NCI-H441 cells, ADC killing assay [3] [ng/mL] | IC50 [4] [ng/mL] | EC50 [5] [ng/mL] | EC50 [6] [ng/mL] |
| --- | --- | --- | --- | --- | --- | --- | --- | --- | --- | --- | --- | --- | --- | --- | --- | --- |
| HuMab-TF-044 (antibody, V domains shown) VH: QVQLVESGGGVVQPGRSLRLSCAASGFTFSDYAMHWVRQAPGKGLEWVAVIPYDGDNKYYADSVKGRFTISRDNSKNTLYLQMNSLRAEDTAVYYCAREDWGLEVDYWGQGALVTVSS VL: AIQLTQSPSSLSASVGDRVTITCRASQGINSALAWYQQKPGKAPKLLIYDASSLESGVPSRFSGSGSGTDFTLTISSLQPEDFATYYCQQFNSYPLTFGGGTKVEIK | 66 | 96 | 44 | 98 | 15 | – | – | – | – | – | – | – | – | – | – | – |
| Anti-TF HuMab 111 (antibody, IgG1, V domains shown, full length, fully human monoclonal IgG1,kappa) VH: QVQLVESGGGVVQPGRSLRLSCAGSGFTFNRYAMYWVRQAPGKGLDWVAVISNDGINKYYADSVKGRFTISRDNSKNTLYLQMNSLRAEDTAVYYCARDHTMVRGAFDYWGQGTLVTVSS VL: EIVLTQSPATLSLSPGERATLSCRASQSVSSYLAWYQQKPGQAPRLLIYDASNRATGIPARFSGSGSGTDFTLTISSLEPEDFAVYYCQQRSNWPLTFGGGTKVEIK | 92 | 98 | 88 | 34 | 15 | 23 | 377 | – | – | – | – | – | – | – | – | – |
| HuMab-TF-111-vcMMAE (antibody, IgG1, V domains shown, vcMMAE drug-linker alkylated to cysteines of the reduced antibody (positions not given), DAR 4.3 by RP-HPLC, 4.1 by HIC) VH: QVQLVESGGGVVQPGRSLRLSCAGSGFTFNRYAMYWVRQAPGKGLDWVAVISNDGINKYYADSVKGRFTISRDNSKNTLYLQMNSLRAEDTAVYYCARDHTMVRGAFDYWGQGTLVTVSS VL: EIVLTQSPATLSLSPGERATLSCRASQSVSSYLAWYQQKPGQAPRLLIYDASNRATGIPARFSGSGSGTDFTLTISSLEPEDFAVYYCQQRSNWPLTFGGGTKVEIK | – | – | – | – | – | – | 464 | 90 | 73 | 51 | 46 | 4 | 416 | – | – | – |
| HuMab-TF-111-mcMMAF (antibody, IgG1, V domains shown, mcMMAF drug-linker alkylated to cysteines of the reduced antibody (positions not given), DAR 4.1 by RP-HPLC, 4.2 by HIC) VH: QVQLVESGGGVVQPGRSLRLSCAGSGFTFNRYAMYWVRQAPGKGLDWVAVISNDGINKYYADSVKGRFTISRDNSKNTLYLQMNSLRAEDTAVYYCARDHTMVRGAFDYWGQGTLVTVSS VL: EIVLTQSPATLSLSPGERATLSCRASQSVSSYLAWYQQKPGQAPRLLIYDASNRATGIPARFSGSGSGTDFTLTISSLEPEDFAVYYCQQRSNWPLTFGGGTKVEIK | – | – | – | – | – | – | 416 | 73 | 74 | 62 | 83 | 15 | 416 | – | – | – |
| Anti-TF HuMab 098 (antibody, IgG1, V domains shown, full length, fully human monoclonal IgG1,kappa; also called HuMab-TF-098) VH: QVQLVQSGAEVRKPGSSVKVSCKASGGSFNNYPIFWVRQAPGQGFEWMGRIIPILGITAYAQKFQGRVTITADKSTSTAYMELNSLRSEDTAVYYCAGGDDLDAFDIWGQGTMVSVSS VL: DIQMTQSPSSLSASVGDRVTITCRASQGISSWLAWYQQKPEKAPKSLIYAASSLQSGVPSRFSGSGSGTDFTLTISSLQPEDFATYYCQQYNSYPYTFGQGTKLEIK | 95 | 99 | 96 | 0.09 | 0.013 | 0.72 | 422 | – | – | – | – | – | – | 1220 | – | – |
| HuMab-TF-013 (antibody, V domains shown) VH: EVQLVQSGAEVKKPGESLKISCKGSGYSFTSYWIGWVRQMPGKGLEWMGIIYPGDSDTRYSPSFQGQVTISADKSISTAYLQWSSLKASDTAMYYCARIHRGAGYSSSWPGAFDIWGQGTMVTVSS VL: DIQMTQSPSSLSASVGDRVTITCRASQGISRWLAWYQQKPEKAPKSLIYAASSLQSGVPSRFSGSGSGTDFTLTISSLQPEDFATYYCQQYDSDPITFGQGTRLEIK | 80 | 96 | 56 | 20 | 9.4 | – | – | – | – | – | – | – | – | – | – | – |
| Anti-TF HuMab 011 (antibody, IgG1, V domains shown, full length, fully human monoclonal IgG1,kappa; also called HuMab-TF-011) VH: EVQLLESGGGLVQPGGSLRLSCAASGFTFSNYAMSWVRQAPGKGLEWVSSISGSGDYTYYTDSVKGRFTISRDNSKNTLYLQMNSLRAEDTAVYYCARSPWGYYLDSWGQGTLVTVSS VL: DIQMTQSPPSLSASAGDRVTITCRASQGISSRLAWYQQKPEKAPKSLIYAASSLQSGVPSRFSGSGSGTDFTLTISSLQPEDFATYYCQQYNSYPYTFGQGTKLEIK | 96 | 98 | 88 | 0.39 | 0.26 | 3 | 373 | – | – | – | – | – | – | 647 | 370 | – |
| HuMab-TF-011-mcMMAF (antibody, IgG1, V domains shown, mcMMAF drug-linker alkylated to cysteines of the reduced antibody (positions not given), DAR 3.9 by RP-HPLC, 4.1 by HIC) VH: EVQLLESGGGLVQPGGSLRLSCAASGFTFSNYAMSWVRQAPGKGLEWVSSISGSGDYTYYTDSVKGRFTISRDNSKNTLYLQMNSLRAEDTAVYYCARSPWGYYLDSWGQGTLVTVSS VL: DIQMTQSPPSLSASAGDRVTITCRASQGISSRLAWYQQKPEKAPKSLIYAASSLQSGVPSRFSGSGSGTDFTLTISSLQPEDFATYYCQQYNSYPYTFGQGTKLEIK | – | – | – | – | – | – | 431 | 78 | 72 | 53 | 22 | 5 | 5 | – | – | – |
| HuMab-TF-098-vcMMAE (antibody, IgG1, V domains shown, vcMMAE drug-linker alkylated to cysteines of the reduced antibody (positions not given), DAR 3.9 by RP-HPLC, 3.7 by HIC) VH: QVQLVQSGAEVRKPGSSVKVSCKASGGSFNNYPIFWVRQAPGQGFEWMGRIIPILGITAYAQKFQGRVTITADKSTSTAYMELNSLRSEDTAVYYCAGGDDLDAFDIWGQGTMVSVSS VL: DIQMTQSPSSLSASVGDRVTITCRASQGISSWLAWYQQKPEKAPKSLIYAASSLQSGVPSRFSGSGSGTDFTLTISSLQPEDFATYYCQQYNSYPYTFGQGTKLEIK | – | – | – | – | – | – | 426 | 92 | 71 | 60 | 9 | 1 | 10 | – | – | – |
| HuMab-TF-011-vcMMAE (antibody, IgG1, V domains shown, vcMMAE drug-linker alkylated to cysteines of the reduced antibody (positions not given), DAR 3.9 by RP-HPLC, 3.9 by HIC) VH: EVQLLESGGGLVQPGGSLRLSCAASGFTFSNYAMSWVRQAPGKGLEWVSSISGSGDYTYYTDSVKGRFTISRDNSKNTLYLQMNSLRAEDTAVYYCARSPWGYYLDSWGQGTLVTVSS VL: DIQMTQSPPSLSASAGDRVTITCRASQGISSRLAWYQQKPEKAPKSLIYAASSLQSGVPSRFSGSGSGTDFTLTISSLQPEDFATYYCQQYNSYPYTFGQGTKLEIK | – | – | – | – | – | – | 469 | 93 | 71 | 60 | 10 | 3 | 10 | – | – | 470 |
| HuMab-TF-098-mcMMAF (antibody, IgG1, V domains shown, mcMMAF drug-linker alkylated to cysteines of the reduced antibody (positions not given), DAR 4.0 by RP-HPLC, 3.9 by HIC) VH: QVQLVQSGAEVRKPGSSVKVSCKASGGSFNNYPIFWVRQAPGQGFEWMGRIIPILGITAYAQKFQGRVTITADKSTSTAYMELNSLRSEDTAVYYCAGGDDLDAFDIWGQGTMVSVSS VL: DIQMTQSPSSLSASVGDRVTITCRASQGISSWLAWYQQKPEKAPKSLIYAASSLQSGVPSRFSGSGSGTDFTLTISSLQPEDFATYYCQQYNSYPYTFGQGTKLEIK | – | – | – | – | – | – | 401 | 85 | 73 | 63 | 13 | 5 | 4 | – | – | – |
